Assay: Standard protocol for determination of kcat and KM (continuous spectrophotometric assay, Acetyl CoA hydrolysis at 235 nm)
Type: biochemical
Settings: purified protein, about 23° C., 0.2 mM acetyl CoA; for Kcat: 20 mM HEPES pH 6.8, 10% ethylene glycol; for Km: pH 6.8, glyphosate 0.125 to 10 mM
Method: KM was calculated from the initial reaction rates obtained from concentrations of glyphosate ranging from 0.125 to 10 mM, using the Lineweaver-Burke transformation of the Michaelis-Menten equation. kcat/KM was determined by dividing the value determined for kcat by the value determined for KM.
Using this methodology, kinetic parameters for a number of GAT polypeptides exemplified herein were determined. For example, the kcat, KM and kcat/KM for the GAT polypeptide corresponding to SEQ ID NO:445 have been determined to be 322 min^−1, 0.5 mM and 660 mM^−1 min^−1, respectively, using the assay conditions described above. The kcat, KM and kcat/KM for the GAT polypeptide corresponding to SEQ ID NO:457 have been determined to be 118 min^−1, 0.1 mM and 1184 mM^−1 min^−1, respectively, using the assay conditions described above. The kcat, KM and kcat/KM for the GAT polypeptide corresponding to SEQ ID NO:300 have been determined to be 296 min^−1, 0.65 mM and 456 mM^−1 min^−1, respectively, using the assay conditions described above. One of skill in the art can use these numbers to confirm that a GAT activity assay is generating kinetic parameters for a GAT suitable for comparison with the values given herein. For example, the conditions used to compare the activity of GATs should yield the same kinetic constants for SEQ ID NO: 300, 445 and 457 (within normal experimental variance) as those reported herein, when the conditions are used to compare a test GAT with the GAT polypeptides exemplified herein. Kinetic parameters for a number of GAT polypeptide variants were determined according to this methodology and are provided in Table 3.

B1: SEQ ID NO: 272: GAT polypeptide (protein)
chain: MIEVKPINAEDTYEIRHRILRPNQPLEACKYETDLLGGTFHLGGYYRGKLVSIASFHQAEHSELEGQKQYQLRGMATLEEYREQKAGSTLIRHAEELLRKKGADLLWCNARTSASGYYKKLGFSEQGEVYDIPPVGPHILMYKKLT
modifications: 10_17F6
notes: GAT polypeptide
Kcat: 0.798 s⁻¹ | Km: 1400 µM

B2: SEQ ID NO: 424: GAT polypeptide (protein)
chain: MIEVKPINAEDTYEIRHRILRPNQPLEACMYETDLLGGTFHLGGYYRGKLVSIASFHQAEHPELEGQKQYQLRGMATLEGYREQKAGSTLIRHAEALLRKKGADLLWCNARTSASGYYKKLGFSEQGEVYDTPPVGPHILMYKKLT
modifications: 9_15D8
notes: GAT polypeptide
Kcat: 1.788 s⁻¹ | Km: 1100 µM

B3: SEQ ID NO: 430: GAT polypeptide (protein)
chain: MIEVKPINAEDTYEIRHRILRPNQPLEACKYETDLLGGTLHLGGYYRGKLVSIASFHQAEHPELEGQKQYQLRGMATLEGYRGQKAGSTLIRHAEELLRKKGADLLWCNARTSASGYYKKLGFSEQGGVYDIPPVGPHILMYKKLT
modifications: 9_23A10
notes: GAT polypeptide
Kcat: 0.35 s⁻¹ | Km: 1000 µM

B4: SEQ ID NO: 420: GAT polypeptide (protein)
chain: MIEVKPINAEDTYEIRHRILRPNQPLEACMYETDLLGGTFHLGGYYRGKLISIASFHQAEHPELEGQKQYQLRGMATLEGYREQKAGSTLIRHAEELLRKKGADLLWCNARTSASGYYKKLGFSEQGEVYDIPPIGPHILMYKKLT
modifications: 7_9C9
notes: GAT polypeptide
Kcat: 1.08 s⁻¹ | Km: 1000 µM

B5: SEQ ID NO: 429: GAT polypeptide (protein)
chain: MIEVKPINAEDTYEIRHRILRPNQPLEACKYETDLLGGTFHLGGYYRGKLVSIASFHQAEHPELEGQKQYQLRGMATLEGYREQKAGSTLIRHAEELLRKKGADLLWCNARTSASGYYKKLGFSEQGEVYDLPPTGPHILMYKKLT
modifications: 9_22B1
notes: GAT polypeptide
Kcat: 0.835 s⁻¹ | Km: 1400 µM

B6: SEQ ID NO: 422: GAT polypeptide (protein)
chain: MIEAKPINAEDTYEIRHRILRPNQPLEACMYETDLLGGTFHLGGYYRGKLVSIASFHQAEHTELEGQKQYQLRGMATLEEYREQKAGSTLIRHAEELLRKKGADLLWCNARTSASGYYKKLGFSEQGEVYDIPPVGPHILMYKKLT
modifications: 9_13F1
notes: GAT polypeptide
Kcat: 0.527 s⁻¹ | Km: 1100 µM

B7: SEQ ID NO: 431: GAT polypeptide (protein)
chain: MIEVKPINAEDTYEIRHRILRPNQPLEACKYETDLLRGAFHLGGYYRGKLISIASFHQAEHSELEGQKQYQLRGMATLEGYREQKAGSTLIRHAEALLRKKGADLLWCNARTSASGYYKKLGFSEQGEVYDIPPTGPHILMYKKLT
modifications: 9_24F6
notes: GAT polypeptide
Kcat: 0.875 s⁻¹ | Km: 900 µM

B8: SEQ ID NO: 421: GAT polypeptide (protein)
chain: MIEVKPINAEDTYEIRHRILRPNQPLEACKYETDLLRGAFHLGGYYRGKLVSIASFHQAEHSELEGQKQYQLRGMATLEEYREQKAGSTLIRHAEELLRKKGADLLWCNARTSASGYYKKLGFSEQGEVYDIPPTGPHILMYKKLT
modifications: 9_13F10
notes: GAT polypeptide
Kcat: 0.578 s⁻¹ | Km: 700 µM

B9: SEQ ID NO: 417: GAT polypeptide (protein)
chain: MIEVKPINAEDTYEIRHRILRPNQPLEACMYETDLLGGTFHLGGYYRGKLISIASFHQAEHSELEGQKQYQLRGMATLEGYREQKAGSTLIRHAEELLRKKGADLLWCNARTSASGYYKKLGFSEQGGVYDIPPVGPHILMYKKLT
modifications: 7_2A11
notes: GAT polypeptide
Kcat: 0.78 s⁻¹ | Km: 1100 µM

B10: SEQ ID NO: 428: GAT polypeptide (protein)
chain: MIEVKPINAEDTYEIRHRILRPNQPLEACMYETDLLGGTFHLGGYYRGKLISIASFHQAEHPELEGQKQYQLRGMATLEGYREQKAGSTLIRHAEELLRKKGADLLWCNARTSASGYYKKLGFSDQGEVYDIPPVGPHILMYKKLT
modifications: 9_21C8
notes: GAT polypeptide
Kcat: 0.477 s⁻¹ | Km: 1200 µM

B11: SEQ ID NO: 426: GAT polypeptide (protein)
chain: MIEVKPINAEDTYEIRHRILRPNQPLEACMYETDLLGGTFHLGGYYRGKLISIASFHQAEHPELVGQKQYQLRGMATLEGYREQKAGSTLIRHAEELLRKKGADLLWCNARTSASGYYKKLGFSEQGEVYDIPPVGPHILMYKKLT
modifications: 9_18H2
notes: GAT polypeptide
Kcat: 0.417 s⁻¹ | Km: 1100 µM

B12: SEQ ID NO: 432: GAT polypeptide (protein)
chain: MIEVKPINAEDTYEIRHRILRPNQPLEACKYETDLLGGTLHLGGYYRGKLISIASFHQAEHPELEGQKQYQLRGMATLEGYREQKAGSTLIRHAEELLRKKGADLIWCNARTSASGYYKKLGFSEQGEVYDIPPVGPHILMYKKLT
modifications: 9_4H10
notes: GAT polypeptide
Kcat: 1.688 s⁻¹ | Km: 1500 µM

B13: SEQ ID NO: 435: GAT polypeptide (protein)
chain: MIEVKPINAEDAYEIRHRILRPNQPLEACKYETDLLGSTFHLGGYYRGKLISIASFHQAEHPELEGQKQYQLRGMATLEEYREQKAGSTLIRHAEELLRKKGADLLWCNARTSASGYYKKLGFSEQGEVYDIPPVGPHILMYKKLT
modifications: 9_9H7
notes: GAT polypeptide
Kcat: 0.467 s⁻¹ | Km: 700 µM

B14: SEQ ID NO: 423: GAT polypeptide (protein)
chain: MIEVKPINAEDTYEIRHRILRPNQPLDACKYETDLLGGTFHLGGYYRGKLISIASFHQAEHPELEGQKQYQLRGMATLEGYREQKAGSTLIRHAEELLRKKGADLLWCNARTSASGYYKKLGFSEQGEVYDIPPVGPHILMYKKLT
modifications: 9_15D5
notes: GAT polypeptide
Kcat: 0.46 s⁻¹ | Km: 1200 µM

B15: SEQ ID NO: 419: GAT polypeptide (protein)
chain: MIEVKPINAEDTYEIRHRILRPNQPLEACMYETDLLGGTFHLGGYYRGKLISIASFHQAEHPELEGQKQYQLRGMATLEGYREQKVGSTLIRHAEELLRKKGADLLWCNARTSASGYYKKLGFSEQGGVYDIPPVGPHILMYKKLT
modifications: 7_5C7
notes: GAT polypeptide
Kcat: 0.745 s⁻¹ | Km: 1000 µM

B16: SEQ ID NO: 418: GAT polypeptide (protein)
chain: MIEVKPINAEDTYEIRHRILRPNQPLEACKYETDLLGGTFHLGGYYRGKLISIASFHQAEHPELEGQKQYQLRGMATLEGYREQKAGSTLIRHAEELLRKKGADLLWCNARTSASGYYKKLGFSEQGEVYDIPPVGPHILMYKKLT
modifications: 7_2D7
notes: GAT polypeptide
Kcat: 0.915 s⁻¹ | Km: 1100 µM

B17: SEQ ID NO: 434: GAT polypeptide (protein)
chain: MIEVKPITAEDTYEIRHRILRPNQPLEACKYETDLLGGTFHLGGYYRGKLISIASFHQAEHPELEGQKQYQLRGMATLEGYREQKAGSTLIRHAEELLRKKGADLLWCNARTSASGYYKKLGFSEQGEVYDIPPTGPHILMYKKLT
modifications: 9_8H1
notes: GAT polypeptide
Kcat: 1.25 s⁻¹ | Km: 1700 µM

B18: SEQ ID NO: 433: GAT polypeptide (protein)
chain: MIEVKPINAEDTYEIRHRILRPNQPLEACMYETDLLGGTFHLGGYYRGKLISIASFNQAEHPELEGQKQYQLRGMATLEGYREQKAGSTLIRHAEELLRKKGADLLWCNARTSASGYYKKLGFSEQGEVYDIPPVGPHILMYKKLT
modifications: 9_4H8
notes: GAT polypeptide
Kcat: 0.785 s⁻¹ | Km: 600 µM

B19: SEQ ID NO: 273: GAT polypeptide (protein)
chain: MIEVKPINAEDTYEIRHRILRPNQPLEACKYETDLLGGTFHLGGYYRGKLVSIASFHQAEHSELEGQKQYQLRGMATLEEYREQKAGSTLIRHAEELLRKKGADLLWCNARTSASGYYKKLGFSEQGGVYDIPPVGPHILMYKKLT
modifications: 10_18G9
notes: GAT polypeptide
Kcat: 0.4 s⁻¹ | Km: 1200 µM

B20: SEQ ID NO: 427: GAT polypeptide (protein)
chain: MIEVKPINAEDTYEIRHRVLRPNQPLEACMYETDLLGGTFHLGGYYRGELVSIASFHQAEHPELEGQKQYQLRGMATLEGYREQKAGSTLIRHAEELLRKKGADLLWCNARTSASGYYKKLGFSEQGGVYDIPPVGPHILMYKKLT
modifications: 9_20F12
notes: GAT polypeptide
Kcat: 0.63 s⁻¹ | Km: 1000 µM

B21: SEQ ID NO: 425: GAT polypeptide (protein)
chain: MIEVKPINAEDTYEIRHRILRPNQPLEACMYETDMLRGAFHLGGYYRGKLISIASFHQAEHPELEGQKQYQLRGMATLEEYHEQKAGSTLIRHAEELLRKKGADLLWCNARTSASGYYKKLGFSEQGEVYNTPPVGPHILMYKKLT
modifications: 9_15H3
notes: GAT polypeptide
Kcat: 1.14 s⁻¹ | Km: 1900 µM
